Data reported in patent US20240343811A1 (SHANDONG SIMCERE BIOPHARMACUTICAL, published 2024).
Where a chain is given by its changes, count along the chain named. Where two headings read alike, the source gives them in different places.

Columns and labels:
[1] = biological target: T1, cynomolgus monkey CD16, full length, on FlpinCHO cells (cynomolgus monkey, UniProt Q8SPW2 17-254); test: FACS on FlpinCHO cells
T1 construct: also called FlpinCHO-cyno CD16; Flipin CHO-cyno CD16
In short: (§1)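 FlpinCHO cells expressing full-length cynomolgus CD16, blocked in PBS/2% BSA at 2×10⁶ cells/ml, incubated with antibody at various concentrations 1 h on ice. Flow cytometry MFI fitted to give EC50.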

[2] = biological target: T2, human CD16a (158V), full length, on cells (human, UniProt P08637 17-254); test: FACS on FlpinCHO cells
T2 construct: also used as target for the bought Jurkat-NFAT reporter line stably expressing human CD16a (158V); also called FlpinCHO-human CD16a (158V); FlpinCHO-CD16a (158V)

[3] = biological target: human CD16a (158F), full length, on FlpinCHO cells (human, UniProt P08637 17-254); test: FACS on FlpinCHO cells
[4] = biological target: T2, human CD16a (158V), full length, on …; test: cell-based or functional assay
[5] = biological target: T1, cynomolgus monkey CD16, full length, on …; test: FACS on FlpinCHO cells; remark: listed apart in the source
In short: as §1

human CD16a (158F), full length, on FlpinCHO cells, sequence (P08637 17-254 limits assumed): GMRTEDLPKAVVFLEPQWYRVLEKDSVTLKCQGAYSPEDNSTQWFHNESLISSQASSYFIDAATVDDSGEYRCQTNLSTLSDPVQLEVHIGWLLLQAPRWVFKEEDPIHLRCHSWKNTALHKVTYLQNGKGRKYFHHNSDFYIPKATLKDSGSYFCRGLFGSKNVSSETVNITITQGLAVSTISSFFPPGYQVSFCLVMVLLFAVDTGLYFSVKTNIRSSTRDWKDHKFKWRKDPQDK
T1 sequence (Q8SPW2 other isoform, or with tags, fused parts or gaps limits assumed): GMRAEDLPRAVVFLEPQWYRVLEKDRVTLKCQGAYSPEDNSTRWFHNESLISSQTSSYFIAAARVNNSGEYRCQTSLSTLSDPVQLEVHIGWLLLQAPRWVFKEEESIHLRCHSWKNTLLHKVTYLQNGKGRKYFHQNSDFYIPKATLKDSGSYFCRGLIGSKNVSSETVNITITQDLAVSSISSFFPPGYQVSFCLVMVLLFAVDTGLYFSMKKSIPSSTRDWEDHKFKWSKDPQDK
T2 sequence (P08637 17-254 F176V limits assumed): as the sequence (P08637 17-254 limits assumed) above, with F160V counted along it

B1: VHH11 VHH-Fc antibody (Fc fusion)
chain: EVQVVESGGGLAQAGGSLRLSCAVSGITFSSYAMGWYRQDPGKQRELVAAINRFGLTNYADSVKGRFTISRDNAKNTVYLQMTSLKPEDTAVYYCNTGGVYSHPNYYTGTYWGQGTQVTVSSEPKSSDKTHTCPPCPAPEFEGGPSVFLFPPKPKDTLMISRTPEVTCVVVAVSHEDPEVKFNWYVDGVEVHNAKTKPREEQYNSTYRVVSVLTVLHQDWLNGKEYKCKVSNKALPAPIEKTISKAKGQPREPQVYTLPPSREEMTKNQVSLTCLVKGFYPSDIAVEWESNGQPENNYKTTPPVLDSDGSFFLYSKLTVDKSRWQQGNVFSCSVMHEALHNHYTQKSLSLSPGK
B1 was tested, and the EC50 [1] was 0.41 nM and the “Maximum mean fluorescence intensity” value [1] was 22000.

B2: VHH12 VHH-Fc antibody (Fc fusion)
chain: B1 chain with E1Q, V4L, A12V, V24A, D40A, S62F, D72V, N105D
For B2, the EC50 [2] was 0.24 nM, the “Maximum mean fluorescence intensity” value [2] was 8050 and the EC50 [3] was 0.23 nM. The “Maximum mean fluorescence intensity” value [3] was 8730, the “EC50, activation activity for Jurkat cell” value [4] was 0.01 nM and the Maximum fluorescence value [4] was 142000. The EC50 [5] was 0.35 nM, the “Maximum mean fluorescence intensity” value [5] was 18400 and the EC50 [1] was 0.24 nM. The “Maximum mean fluorescence intensity” value [1] was 22200.

B3: VHH06 VHH-Fc antibody (Fc fusion)
chain: EVQLVESGGGLVQAGGSLRLSCVASGSTWTTYAVRWYRQAPGKQREWVAFISVDGSTNYPDSVKGRFIVSRDNAKNTVYLQMNSLKPEDTADYICRVGGQYWGQGTQVTVSSEPKSSDKTHTCPPCPAPEFEGGPSVFLFPPKPKDTLMISRTPEVTCVVVAVSHEDPEVKFNWYVDGVEVHNAKTKPREEQYNSTYRVVSVLTVLHQDWLNGKEYKCKVSNKALPAPIEKTISKAKGQPREPQVYTLPPSREEMTKNQVSLTCLVKGFYPSDIAVEWESNGQPENNYKTTPPVLDSDGSFFLYSKLTVDKSRWQQGNVFSCSVMHEALHNHYTQKSLSLSPGK
B3 was tested, and the EC50 [2] was 0.66 nM, the “Maximum mean fluorescence intensity” value [2] was 9250 and the EC50 [3] was 0.61 nM. For the same binder, the “Maximum mean fluorescence intensity” value [3] was 10200, the “EC50, activation activity for Jurkat cell” value [4] was 0.02 nM and the Maximum fluorescence value [4] was 168000.
